From US20220168396A1, “MULTI-RECEPTOR AGONIST AND MEDICAL USE THEREOF” (published 2022)
Square brackets hold non-standard residues; d marks the D form. Ends that are not written are not given here. Aib = CC(C)(N)C(=O)O

Columns and labels:
[1] = biological target: human glucagon-like peptide-1 receptor (human, UniProt P43220); experiment: cell-based or functional assay
[2] = biological target: T1, human glucose-dependent insulinotropic peptide receptor (human, UniProt P48546); experiment: cell-based or functional assay
T1 sequence: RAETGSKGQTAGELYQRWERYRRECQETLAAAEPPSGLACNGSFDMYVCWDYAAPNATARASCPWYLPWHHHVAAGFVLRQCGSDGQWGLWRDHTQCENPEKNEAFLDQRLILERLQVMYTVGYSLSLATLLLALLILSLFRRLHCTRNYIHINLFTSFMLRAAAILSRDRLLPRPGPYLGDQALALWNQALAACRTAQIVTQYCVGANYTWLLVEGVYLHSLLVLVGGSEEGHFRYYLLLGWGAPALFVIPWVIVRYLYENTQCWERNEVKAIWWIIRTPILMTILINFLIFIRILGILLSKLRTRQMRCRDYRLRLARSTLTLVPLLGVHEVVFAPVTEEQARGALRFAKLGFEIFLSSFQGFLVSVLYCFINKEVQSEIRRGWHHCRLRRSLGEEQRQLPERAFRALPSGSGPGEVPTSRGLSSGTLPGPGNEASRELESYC

B1: Compound No. 17 (peptide)
peptide: Y[Aib]EGTFTSDYSIYLEKEA[Aib]KEFVNWLLAGGPSSGAPPPSK-NH2
modifications: N-terminus assumed
SMILES: CC[C@H](C)[C@H](NC(=O)[C@H](CO)NC(=O)[C@H](Cc1ccc(O)cc1)NC(=O)[C@H](CC(=O)O)NC(=O)[C@H](CO)NC(=O)[C@@H](NC(=O)[C@H](Cc1ccccc1)NC(=O)[C@@H](NC(=O)CNC(=O)[C@H](CCC(=O)O)NC(=O)C(C)(C)NC(=O)[C@@H](N)Cc1ccc(O)cc1)[C@@H](C)O)[C@@H](C)O)C(=O)N[C@@H](Cc1ccc(O)cc1)C(=O)N[C@@H](CC(C)C)C(=O)N[C@@H](CCC(=O)O)C(=O)N[C@@H](CCCCN)C(=O)N[C@@H](CCC(=O)O)C(=O)N[C@@H](C)C(=O)NC(C)(C)C(=O)N[C@@H](CCCCN)C(=O)N[C@@H](CCC(=O)O)C(=O)N[C@@H](Cc1ccccc1)C(=O)N[C@H](C(=O)N[C@@H](CC(N)=O)C(=O)N[C@@H](Cc1c[nH]c2ccccc12)C(=O)N[C@@H](CC(C)C)C(=O)N[C@@H](CC(C)C)C(=O)N[C@@H](C)C(=O)NCC(=O)NCC(=O)N1CCC[C@H]1C(=O)N[C@@H](CO)C(=O)N[C@@H](CO)C(=O)NCC(=O)N[C@@H](C)C(=O)N1CCC[C@H]1C(=O)N1CCC[C@H]1C(=O)N1CCC[C@H]1C(=O)N[C@@H](CO)C(=O)N[C@@H](CCCCN)C(N)=O)C(C)C
[1]
  Activity for human GLP-1R (EC50 nM), cAMP HTRF: 0.01 nM
[2]
  Activity for human GIPR (EC50 nM), cAMP HTRF: 0.057 nM

B2: Compound No. 18 (peptide)
peptide: Y[Aib]EGTFTSDYSIYLE[Aib]IAAQEFVNWLLAGGPSSGAPPPSK-NH2
modifications: N-terminus assumed
SMILES: CC[C@H](C)[C@H](NC(=O)[C@H](CO)NC(=O)[C@H](Cc1ccc(O)cc1)NC(=O)[C@H](CC(=O)O)NC(=O)[C@H](CO)NC(=O)[C@@H](NC(=O)[C@H](Cc1ccccc1)NC(=O)[C@@H](NC(=O)CNC(=O)[C@H](CCC(=O)O)NC(=O)C(C)(C)NC(=O)[C@@H](N)Cc1ccc(O)cc1)[C@@H](C)O)[C@@H](C)O)C(=O)N[C@@H](Cc1ccc(O)cc1)C(=O)N[C@@H](CC(C)C)C(=O)N[C@@H](CCC(=O)O)C(=O)NC(C)(C)C(=O)N[C@H](C(=O)N[C@@H](C)C(=O)N[C@@H](C)C(=O)N[C@@H](CCC(N)=O)C(=O)N[C@@H](CCC(=O)O)C(=O)N[C@@H](Cc1ccccc1)C(=O)N[C@H](C(=O)N[C@@H](CC(N)=O)C(=O)N[C@@H](Cc1c[nH]c2ccccc12)C(=O)N[C@@H](CC(C)C)C(=O)N[C@@H](CC(C)C)C(=O)N[C@@H](C)C(=O)NCC(=O)NCC(=O)N1CCC[C@H]1C(=O)N[C@@H](CO)C(=O)N[C@@H](CO)C(=O)NCC(=O)N[C@@H](C)C(=O)N1CCC[C@H]1C(=O)N1CCC[C@H]1C(=O)N1CCC[C@H]1C(=O)N[C@@H](CO)C(=O)N[C@@H](CCCCN)C(N)=O)C(C)C)[C@@H](C)CC
[1]
  Activity for human GLP-1R (EC50 nM), cAMP HTRF: 0.022 nM
[2]
  Activity for human GIPR (EC50 nM), cAMP HTRF: 0.012 nM

B3: Compound No. 14 (peptide)
peptide: Y[Aib]EGTFTSDYSIYLEKIAAQEFVNWLLAGGPSSGAPPPSK-NH2
modifications: N-terminus assumed
SMILES: CC[C@H](C)[C@H](NC(=O)[C@H](CCCCN)NC(=O)[C@H](CCC(=O)O)NC(=O)[C@H](CC(C)C)NC(=O)[C@H](Cc1ccc(O)cc1)NC(=O)[C@@H](NC(=O)[C@H](CO)NC(=O)[C@H](Cc1ccc(O)cc1)NC(=O)[C@H](CC(=O)O)NC(=O)[C@H](CO)NC(=O)[C@@H](NC(=O)[C@H](Cc1ccccc1)NC(=O)[C@@H](NC(=O)CNC(=O)[C@H](CCC(=O)O)NC(=O)C(C)(C)NC(=O)[C@@H](N)Cc1ccc(O)cc1)[C@@H](C)O)[C@@H](C)O)[C@@H](C)CC)C(=O)N[C@@H](C)C(=O)N[C@@H](C)C(=O)N[C@@H](CCC(N)=O)C(=O)N[C@@H](CCC(=O)O)C(=O)N[C@@H](Cc1ccccc1)C(=O)N[C@H](C(=O)N[C@@H](CC(N)=O)C(=O)N[C@@H](Cc1c[nH]c2ccccc12)C(=O)N[C@@H](CC(C)C)C(=O)N[C@@H](CC(C)C)C(=O)N[C@@H](C)C(=O)NCC(=O)NCC(=O)N1CCC[C@H]1C(=O)N[C@@H](CO)C(=O)N[C@@H](CO)C(=O)NCC(=O)N[C@@H](C)C(=O)N1CCC[C@H]1C(=O)N1CCC[C@H]1C(=O)N1CCC[C@H]1C(=O)N[C@@H](CO)C(=O)N[C@@H](CCCCN)C(N)=O)C(C)C
[1]
  Activity for human GLP-1R (EC50 nM), cAMP HTRF: 0.008 nM
[2]
  Activity for human GIPR (EC50 nM), cAMP HTRF: 0.006 nM

B4: Compound No. 13 (peptide)
peptide: Y[Aib]EGTFTSDYSIYLEKIAAKEFVNWLLAGGPSSGAPPPSK-NH2
modifications: N-terminus assumed
SMILES: CC[C@H](C)[C@H](NC(=O)[C@H](CCCCN)NC(=O)[C@H](CCC(=O)O)NC(=O)[C@H](CC(C)C)NC(=O)[C@H](Cc1ccc(O)cc1)NC(=O)[C@@H](NC(=O)[C@H](CO)NC(=O)[C@H](Cc1ccc(O)cc1)NC(=O)[C@H](CC(=O)O)NC(=O)[C@H](CO)NC(=O)[C@@H](NC(=O)[C@H](Cc1ccccc1)NC(=O)[C@@H](NC(=O)CNC(=O)[C@H](CCC(=O)O)NC(=O)C(C)(C)NC(=O)[C@@H](N)Cc1ccc(O)cc1)[C@@H](C)O)[C@@H](C)O)[C@@H](C)CC)C(=O)N[C@@H](C)C(=O)N[C@@H](C)C(=O)N[C@@H](CCCCN)C(=O)N[C@@H](CCC(=O)O)C(=O)N[C@@H](Cc1ccccc1)C(=O)N[C@H](C(=O)N[C@@H](CC(N)=O)C(=O)N[C@@H](Cc1c[nH]c2ccccc12)C(=O)N[C@@H](CC(C)C)C(=O)N[C@@H](CC(C)C)C(=O)N[C@@H](C)C(=O)NCC(=O)NCC(=O)N1CCC[C@H]1C(=O)N[C@@H](CO)C(=O)N[C@@H](CO)C(=O)NCC(=O)N[C@@H](C)C(=O)N1CCC[C@H]1C(=O)N1CCC[C@H]1C(=O)N1CCC[C@H]1C(=O)N[C@@H](CO)C(=O)N[C@@H](CCCCN)C(N)=O)C(C)C
[1]
  Activity for human GLP-1R (EC50 nM), cAMP HTRF: 0.013 nM
[2]
  Activity for human GIPR (EC50 nM), cAMP HTRF: 0.017 nM

B5: Compound No. 16 (peptide)
peptide: Y[Aib]EGTFTSDYSIYLEKE[Aib]AKEFVNWLLAGGPSSGAPPPSK-NH2
modifications: N-terminus assumed
SMILES: CC[C@H](C)[C@H](NC(=O)[C@H](CO)NC(=O)[C@H](Cc1ccc(O)cc1)NC(=O)[C@H](CC(=O)O)NC(=O)[C@H](CO)NC(=O)[C@@H](NC(=O)[C@H](Cc1ccccc1)NC(=O)[C@@H](NC(=O)CNC(=O)[C@H](CCC(=O)O)NC(=O)C(C)(C)NC(=O)[C@@H](N)Cc1ccc(O)cc1)[C@@H](C)O)[C@@H](C)O)C(=O)N[C@@H](Cc1ccc(O)cc1)C(=O)N[C@@H](CC(C)C)C(=O)N[C@@H](CCC(=O)O)C(=O)N[C@@H](CCCCN)C(=O)N[C@@H](CCC(=O)O)C(=O)NC(C)(C)C(=O)N[C@@H](C)C(=O)N[C@@H](CCCCN)C(=O)N[C@@H](CCC(=O)O)C(=O)N[C@@H](Cc1ccccc1)C(=O)N[C@H](C(=O)N[C@@H](CC(N)=O)C(=O)N[C@@H](Cc1c[nH]c2ccccc12)C(=O)N[C@@H](CC(C)C)C(=O)N[C@@H](CC(C)C)C(=O)N[C@@H](C)C(=O)NCC(=O)NCC(=O)N1CCC[C@H]1C(=O)N[C@@H](CO)C(=O)N[C@@H](CO)C(=O)NCC(=O)N[C@@H](C)C(=O)N1CCC[C@H]1C(=O)N1CCC[C@H]1C(=O)N1CCC[C@H]1C(=O)N[C@@H](CO)C(=O)N[C@@H](CCCCN)C(N)=O)C(C)C
[1]
  Activity for human GLP-1R (EC50 nM), cAMP HTRF: 0.007 nM
[2]
  Activity for human GIPR (EC50 nM), cAMP HTRF: 0.018 nM

B6: Compound No. 15 (peptide)
peptide: Y[Aib]EGTFTSDYSIYLEKIAQKEFVNWLLAGGPSSGAPPPSK-NH2
modifications: N-terminus assumed
SMILES: CC[C@H](C)[C@H](NC(=O)[C@H](CCCCN)NC(=O)[C@H](CCC(=O)O)NC(=O)[C@H](CC(C)C)NC(=O)[C@H](Cc1ccc(O)cc1)NC(=O)[C@@H](NC(=O)[C@H](CO)NC(=O)[C@H](Cc1ccc(O)cc1)NC(=O)[C@H](CC(=O)O)NC(=O)[C@H](CO)NC(=O)[C@@H](NC(=O)[C@H](Cc1ccccc1)NC(=O)[C@@H](NC(=O)CNC(=O)[C@H](CCC(=O)O)NC(=O)C(C)(C)NC(=O)[C@@H](N)Cc1ccc(O)cc1)[C@@H](C)O)[C@@H](C)O)[C@@H](C)CC)C(=O)N[C@@H](C)C(=O)N[C@@H](CCC(N)=O)C(=O)N[C@@H](CCCCN)C(=O)N[C@@H](CCC(=O)O)C(=O)N[C@@H](Cc1ccccc1)C(=O)N[C@H](C(=O)N[C@@H](CC(N)=O)C(=O)N[C@@H](Cc1c[nH]c2ccccc12)C(=O)N[C@@H](CC(C)C)C(=O)N[C@@H](CC(C)C)C(=O)N[C@@H](C)C(=O)NCC(=O)NCC(=O)N1CCC[C@H]1C(=O)N[C@@H](CO)C(=O)N[C@@H](CO)C(=O)NCC(=O)N[C@@H](C)C(=O)N1CCC[C@H]1C(=O)N1CCC[C@H]1C(=O)N1CCC[C@H]1C(=O)N[C@@H](CO)C(=O)N[C@@H](CCCCN)C(N)=O)C(C)C
[1]
  Activity for human GLP-1R (EC50 nM), cAMP HTRF: 0.015 nM
[2]
  Activity for human GIPR (EC50 nM), cAMP HTRF: 0.009 nM
